Reference: patent publication US8722043B2, “Induction of p53 expression by neutralization of neuropilin-2 for the treatment of cancers” (Diaclone, priority 2008, dated 2014)

Columns and labels:
[1] = system: Colo320siRNA-ctrl cells; test: Annexin V-APC apoptosis test with or without PFTα pretreatment; type: cell-based, human; settings: 20 μg/ml, 5 h
Procedure: In order to correlate the induction of apoptosis with p53 expression, the Colo320siRNA-ctrl cells were pretreated for 18 h with a chemical inhibitor of p53, pifithrin-α, at a dose of 27 μM (PFTα, Sigma). After pretreatment, the cells are washed twice with 3 ml of PBS and placed in a 24-well plate, at a rate of 100 000 cells/well in 1 ml of RPMI-10% FCS. Non-pretreated cells are placed under the same conditions. The cells are incubated for 5 h with a control murine isotype antibody (BZ1) or ITAC-B1 at 20 μg/ml and the apoptosis is measured as described above.
FIG. 14 represents the results of the apoptosis-induction experiments carried out with the Colo320siRNA-ctrl cells pretreated or not pretreated with PFTα. The percentage of cells labelled with Annexin V-APC is indicated on the y-axis, the cell culture conditions are indicated on the x-axis (control consisting of medium, control consisting of medium supplemented with a control isotype antibody -BZ1-, test consisting of medium supplemented with the ITAC-B1 antibody). The results of the tests carried out with cells pretreated with PFTα are represented in light grey, those of the tests carried out with non-pretreated cells are represented in dark grey.

[2] = system: HT29-NRP-2 tumour cells; test: HT29-NRP-2 subcutaneous xenograft, tumour volume; type: in vivo, immunodeficient mice
Procedure: HT29-NRP-2 tumour cells were injected subcutaneously into 20 immunodeficient mice, at a rate of 1×10^6 cells per mouse, in the right flank. 10 days after the injection, the tumours measure approximately 5 mm×5 mm.
In accordance with the protocol described above, group B was inoculated with ITAC-B1 at D0 (12 mg/kg), D3 (6 mg/kg), D7 (12 mg/kg) and D10 (6 mg/kg). Group C was inoculated with 20 mg/kg of 5-FU from D0 to D4 and then with 100 mg/kg at D9. Group D was inoculated with ITAC-B1 at D0 (12 mg/kg), D3 (6 mg/kg), D7 (12 mg/kg) and D10 (6 mg/kg) and with 20 mg/kg of 5-FU from D0 to D4 and 100 mg/kg of 5-FU at D9.
The tumours were measured twice a week, and the volume of the tumours was calculated with the formula: V (mm^3)=d^2×D/2.
FIG. 21 represents the tumour volume as a function of time. Group A (PBS control) is represented by (⋄), group B (mice inoculated with the ITAC-B1 antibody) is represented by (▪), group C (mice inoculated with 5-FU) is represented by (Δ), and group D (mice inoculated both with the ITAC-B1 antibody and with 5-FU) is represented by (x).

[3] = biological target: T1, human neuropilin-2 at the membrane surface (HT29-NRP-2, P815-NRP-2 cells) (Homo sapiens, UniProt O60462); test: Flow cytometry membrane labelling of cells expressing or not expressing NRP-2; type: binding; settings: 5 μg/ml antibody, 15 minutes at 4° C.; HT29, HT29-NRP-2, P815, P815-NRP-2 cells
T1 construct: expressed in transfected cells; host or cells: HT29 (human colorectal cancer) and P815 (murine mastocytoma) cells, G418-selected
Procedure: The ITAC-B1 clone was deposited, according to the Treaty of Budapest, with the CNCM (Collection Nationale des Microorganismes [French National Microorganism Collection], Institut Pasteur, 25 rue du Docteur Roux, 75724 Paris Cedex 15, France) on 30 Jul. 2008 under the deposit number CNCM 1-4054. In order to characterize the ITAC-B1 and ITAC-B2 monoclonal antibodies, membrane labelling was carried out by flow cytometry by bringing 200 000 HT29, HT29-NRP-2, P815 or P815-NRP-2 cells into contact with 5 μg/ml of ITAC-B1 or of ITAC-B2, for 15 minutes at 4° C. A goat anti-mouse secondary antibody coupled to FITC was then incubated for 15 minutes in the dark, at 4° C., before reading by flow cytometry. The results of the flow cytometry analysis obtained for ITAC-B1 are represented in FIG. 2.
For each of the panels of FIG. 2, the number of events (number of cells) is indicated on a y-axis, the fluorescence intensity (corresponding to the labelling of the cells with the ITAC-B1 antibody) is represented on the x-axis. Panels A and C (P815+ITAC-B1 and HT29ctrl+ITAC-B1) of FIG. 2 represent the results obtained by flow cytometry with the control cells, while panels B and D (P815-NRP-2+ITAC-B1 and HT29-NRP-2+ITAC-B1) represent the results obtained with cells expressing NRP-2 at their membrane surface. […]

T1 sequence (O60462 21-931): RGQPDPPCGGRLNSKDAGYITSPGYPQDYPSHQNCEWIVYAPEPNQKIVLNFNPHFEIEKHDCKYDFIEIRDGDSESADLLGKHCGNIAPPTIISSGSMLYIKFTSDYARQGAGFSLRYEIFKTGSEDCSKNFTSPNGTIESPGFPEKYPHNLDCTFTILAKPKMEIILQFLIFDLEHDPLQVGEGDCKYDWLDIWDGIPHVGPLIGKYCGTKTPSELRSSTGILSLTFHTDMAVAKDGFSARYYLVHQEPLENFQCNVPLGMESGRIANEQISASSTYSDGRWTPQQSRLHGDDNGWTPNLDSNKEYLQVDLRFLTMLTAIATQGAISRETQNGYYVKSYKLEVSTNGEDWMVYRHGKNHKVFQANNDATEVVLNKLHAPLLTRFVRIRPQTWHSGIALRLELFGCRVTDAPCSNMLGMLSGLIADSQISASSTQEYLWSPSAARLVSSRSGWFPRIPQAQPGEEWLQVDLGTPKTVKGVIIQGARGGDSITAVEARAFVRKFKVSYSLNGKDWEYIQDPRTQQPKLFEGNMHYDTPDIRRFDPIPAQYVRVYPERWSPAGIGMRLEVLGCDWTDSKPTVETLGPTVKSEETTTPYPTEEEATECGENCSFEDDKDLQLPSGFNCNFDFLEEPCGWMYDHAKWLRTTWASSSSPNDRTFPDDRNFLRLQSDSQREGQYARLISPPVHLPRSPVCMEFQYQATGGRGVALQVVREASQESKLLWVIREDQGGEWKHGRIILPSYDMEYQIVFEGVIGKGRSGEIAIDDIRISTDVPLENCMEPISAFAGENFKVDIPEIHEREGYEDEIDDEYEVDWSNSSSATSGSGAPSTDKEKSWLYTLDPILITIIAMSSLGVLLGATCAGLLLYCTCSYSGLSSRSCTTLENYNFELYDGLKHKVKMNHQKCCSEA

B1: ITAC-B1: anti-human neuropilin-2 murine monoclonal antibody, VH SEQ ID No. 2, VL SEQ ID No. 4, produced by hybridoma CNCM 1-4054 (antibody, listed as Mus musculus, V domains shown)
VH: EVKLQESGAELVKPGASVKLSCTVSGFNIKDTYIHWVIQRPEQGLEWLGRIDPANGNTKYDPKFQGKATITADTSSNTAYLQLSSLTSEDTAVYYCARWAVVGDYWGQGTTLTVSS
VL: YCDHPLYKFLHVSAGDRVTITCKASQSVSDDVAWYQQKPGQSPKLLIYSASNRYTGVPDRFTGSGYGTDFTFTISTVQPEDLAVYFCQQDYSSPTFGSGTKLELK
percentage of cells labelled with Annexin V-APC ([1]; cells pretreated 18 h with PFTα 27 μM): approximately 28% | percentage of cells labelled with Annexin V-APC ([1]; non-pretreated cells): 41% | tumour volume ([2]; group B: ITAC-B1 intraperitoneally D0 12 mg/kg, D3 6 mg/kg, D7 12 mg/kg, D10 6 mg/kg): reduction in tumour volume is observed starting from D14 | tumour volume ([2]; group D: ITAC-B1 combined with 5-FU, same regimens): more marked | labelling of cells expressing NRP-2 versus cells not expressing NRP-2 [3]: specifically recognize the neuropilin-2 present at the membrane surface
